Measured values: the supplement of paper PMC9170038

test system: K4 kissing-loop RNA reporter; experiment: apparent KD of K4 kissing-loop reporter; higher = weaker reporter binding; conditions: Eterna round: R107; input ligand: FMN 200 uM
Method: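 RNA-MaP round R107: designed RNA switches with theophylline, tryptophan, arginine or FMN aptamers are transcribed on-chip within common flanks. They are titrated with a labelled K4 kissing-loop RNA reporter in RNA-MaP buffer (100 mM Tris pH 7.5, 80 mM KCl, 4 mM MgCl2), without ligand or with the indicated ligand. Median apparent KD per design.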
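Also: bound reporter read as fluorescence of individual clusters on recovered sequencing chips by microscopy, with normalized cluster intensities fitted with a binding model.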

| Sequence | apparent KD of K4 kissing-loop reporter [nM] |
| --- | --- |
| UGAUACCAGACUGAUACCAGCAAGUGAUGUUUGUUGAUCAAAAGCAGUCAAAGACUGCUUUGCCCUUGGCAGCAGUCUGGUAUCU [#10 K4 Theophylline B Exclusion] | 167 |
| GGUAGCAUGGCGGCCGCCACUUACACCACGGCCCUUCUAGUGAUGUUAGAGUGGAUUAUUCCGUUAAGGACCGGGCCAUGCUACC | 629 |
| UUUCCAGAUAAGUGGGAACGCUCCAUAACAGAGGAUAUCAGAGCGCUGAGAAGGCUGUUUUACAGUGAUGUUGUAAGUGUGGAGC [#10 K4 FMN A Same State] | 158 |
| AGAGUUAUGAGAGGAUAUGCGGCUAGUACUCAAAGAGUACUAGCAGCAGAGUGAUGUUCUGUGAAAGCAGAAGGUUCAUAACUCA [#06 K4 FMN B Same State] | 124 |
| GAGGUAUGCGCAGUGAUGUUGCGACGAGAUACCAGUCGUUCUGUCGACCCUUGGCAGCUCCCACCAGACGUACGAGUUUGUGUUG [theeternabot_sameState_KL_Theo_A_10] | 114 |
| ACACUUUACGUAGGAUAUGCGACGAGUGAUGUUCGUCAGGCGGCUUGAGCUUAAACAGGCCGUCUAGCAGAAGGACGGGCAGUGU [Diorsodi] | 147 |
| AAUUUUAAUAAUAAAUAAUAAAUAAAUGAUACCAGUAUUUUUUUUUACCCUUGGCAGCGUAUAUAAGGGCAGUGAUGUUGUCAAA [whbob_SS_Theo_A_w58] | 205 |
| UGGGCCGCCUGAGGAUAUAGAGACGAGUGAUGUUCGUGGAUAAGAGCCAGUGAUGUUGGGUUAUUUCUAGAAGGCGGGCGAACUU [Exclusion FMN B GF9] | 144 |
| ACGUCCGGAUUGAUCGUGGGCAUGGUCGAUACCAGUAGUUUAAUCUACCCUUGGCAGCGACAUGAGUGAUGUUCAUGUGCGGUGA [#14 K4 Theophylline A Exclusion] | 194 |
| UGGAGUUGACGAAAAGUCAACUCCAGAGAAGGAGCGGACGAAAGUCCAGGUAGGUCGCUCACUACCAGUGAUGUUGGUACUAAAA | 167 |
| GCGGACAUUCGCAGUGAUGUUGCGACGGAAGGAGCGGAUGAAAAUCCAGGUAGGUCGCCGACAAAAUUAAUUUUAAUGUGUUCGC [#03 K4 Arginine A Same State] | 358 |
| UUAUAUAUAUCAGAUACCAGUAUAAUGGAAACAAAUUAUGUUAUGAGUGAUGUUCAUGUAUGCCCUUGGCAGCUGGUAUGGGUUU [KL-XTheo-B20] | 356 |
| AAUAAUAUACAAAGGCGAACGAAUAGGGAAGGAGCGCGAUAUAACGCAGGUAGGUCGCCCAUAUUUUUAGUGAUGUUAGAGAAUA [E. Arginine A Tesla 1] | 938 |
| AAAGUGUCAGCACGAGUGAUGUUCGACGAUACCAGCCUCGAUAGAGGCCCUUGGCAGCGUAAAAGUCAAGGGCUGGCACAUAAAA [#SwitchBubble 5 #K4Early] | 789 |
| GGUAGCAUGGCGGCCGCCACUAUCCUUCAUGGUUGACAUUAAGGAUAGCAUAGUGAUGUUAUGAAUAGGACCGGGCCAUGCUACC | 175 |
| UUAGAGAUCUCAGGAUAUGAGUGAUGUUGAUAUCAAGAUCUGAGAUAGAAUUCUAUCUCAGAUCAAUCAGAAGGGAGAUCUCAUU [AK1.3 Exc FMN B] | 172 |
| AAAUUUGCUCAUGAUACCAGCCAGUGAUGUUGGUUGGUCCACCGUGUCCGAACAUUAAGCGGCCCUUGGCAGCAUGAUGCGCGUA [Ininveaen] | 129 |
| GUAUCGCUAGGAGGAUAUUUCAAUUCGCCUAUAAAUGGUGAUACGGAGUGAUGUUCCGAUUUACGGAAAGAAGGCCUAGUGAUAC [FMN B 8] | 146 |
| AGGGCACUGGCGGCCGCCACUUUUCGUGCGAACCAAAGCUAGUGAUGUUGGCUCCCUAGUUGCAAAAGGACCGGGCCGUUCAUCU [theeternabot_sameState_KL_Trp_B_37] | 315 |
| UUUUUAUGCAGUGAUGUUGCUAAUAUAACAGAGGAUAUGCAUUAAUGCAGAAGGCUGAAAUACUAUACUUUAAUAAAUUAAAUUU [JR_SSFMNA_Sub014] | 89.9 |
| GGACGCCGGUCGGCCGCCACUCACAGCAGUGAUGUUGCUGAGAAUGUAGCGGAGUGAUGUUCCGAGAGGACCGGGACUGCAGUUU [Same State Tryptophan B GF 9] | 240 |
| UCCUGCAGUCUGCCACGAAAGUGGAUUGAUACCAGAGUCGAAAGACUCCCUUGGCAGCGAGUGAUGUUCGAAGCAGGUAAAUAAA [MatMod 1 - Jieux - Exclusion - Theophylline A] | 160 |

| Sequence | apparent KD of K4 kissing-loop reporter [nM] |
| --- | --- |
| GCUAGCAAUGCAGGAUAUUAAAACGAGUGAUGUUCGGUACCGAGGAUGGGAAACCAUCCUCGGUAAUAAGAAGGGCAUUGCUAGC | 210 |
| CGGAGUCGCGGAAGGAGCGCUCGAUAGACAAGUUGAUCGUGCCGUGGUCGAGUGAUGUUCGAGCAGGUAGGUCGCCGUCGGUCCC [Cexeatedma] | 252 |
| CGUACGGUUUCUUUCUUUCCGUACGAGUGCCGAGGACCGGUACGGCCGCCACUCGCUACAGCCUAGUGAUGUUAGGCGAUUCUUU | 129 |
| CAUACGCAUGGAGGAUAUGAGAUUUCUCAUGUCAUUUAAUAUUCUCAGUGAUGUUGAGAUUUUGGCUCAGAAGGCCAUGUGUAUG [Ex FMN B 19] | 176 |
| GCUAUAGUGUUAGAUACCAGUAUCCUGCAAAGCCAUCAAAUGCAGUGAUGUUGCAUAAACUACCCUUGGCAGCUAAUUGGGCUCU [theeternabot_exclusion_KL_Theo_B_49] | 226 |
| AUGUCUUAUAAACUCAUGGUUUCGAUCGAUACCAGUAGCGAGAGUUACCCUUGGCAGCGACAUGAGUGAUGUUCAUGUACGAAGA [KL-XTheoA5] | 109 |
| AUUGUACAGGGAAGGAGCGUCGACCAGUGAUGUUGGAGUUAAAUACCAGUGAUGUUGGUUAGGCAGGUAGGUCGCCCUCAAGUAG [#10 K4 Arginine B Exclusion] | 180 |
| CCAAUCUUUUACGAUACCAGUCUAAUAUAUUUAAUCAAAACCCUCGCCGAGUGAUGUUCGGACCCUUGGCAGCGUUUGCGAGAGG [xssgstkmullin] | 656 |
| UGGAGUUGACGAAAAGUCAACUCCUGGGAAGGAGCGGACGAAAGUCCAGGUAGGUCGCUCACUACCAGUGAUGUUGGUACUUAAA | 229 |
| AAUUUAUUAACUGAUACCAGACUUUAUUAUUUGUAAAUUACUAGUGAUGUUAGUGUUUCUGUCCCUUGGCAGCAGUAUUUAUUAA [JR_SSTheophyB_Sub024] | 78.8 |
| CUUAGGUCAGUUACCCGAGUGAUGUUCUGUCGAGGACCGGUACGGCCGCCACUCGCUCAUUAUCGGUCUGACAAAGAGCUGGCUU [theeternabot_exclusion_KL_Trp_A_9] | 393 |
| UUAUAUAUAUCAGAUACCAGCAUAAUGGAAACAAAUUAUGUUAUGAGUGAUGUUCAUGUAUGCCCUUGGCAGCUGGUAUGGGUUU [KL-XTheo-B19] | 467 |
| GUUUGCCGGUCCCGGAGUGAUGUUCCGGAUACCAGCAACUUCCUUUGCCCUUGGCAGCCGUAGCUAUACCGGGUGGCAGCUUCAG [Anresoenus] | 111 |
| GCAGUGAUGUUGCACGAGUAGGCUAGAGUACGAGGACCGGUACGGCCGCCACUCGUACGGAAGUCGCUAAUUUAUGGAAUGGUGA [#05 K4 Tryptophan A Same State] | 713 |
| CGCCAGGGUGAAGGAUAUCCGUCUGAUUGAGCGCAGUGAUGUUGCGCGAUUCGUUCAUCGCUCGGAGGAGAAGGUCAGAUAACUC [theeternabot_sameState_KL_FMN_B_3] | 127 |
| GGCAGUGAUGUUGCCAGUGGCAGAUGCGAAGGAGCGUGGUGAGACACAGGUAGGUCGCGCAUUGAAAUUGCUGUCACUAAAAUGC [#3] | 338 |
| GCCGUAGAUUGAAGGAGCGGGCCGUAGUGAUGUUACGCCAAUUUAUCUUUUCUUGAUGUGGCCCAGGUAGGUCGCAAUCUACGGC | 241 |
| CUUGAUCGAGGAAGGAGCGGGCCGUCAUUGAGCGCAGUGAUGUUGCGUUCGACUAGUCGAGCCCAGGUAGGUCGCCUGGAGUAAG [Lazalaa] | 84.9 |
| UCGUUAAAAGCGGCCGCCACUGCCAGAGCUCUGGAAAAGGCUGGAGUGAUGUUCUGCCUAGUAGACAGGACCGGGCUAUUGGAUU [theeternabot_sameState_KL_Trp_B_29] | 667 |
| UGUCAUUGGUCUGAUACCAGUUGAUGACGAAUACGUCAACUGGAGUGAUGUUCCAAUAACAACCCUUGGCAGCAGACCGAUGACU [MAT - Same State Theophlline B - Mod of Eli - D3] | 557 |
| UGAUACCAGACGGCCGCCACUCCUGCAGUCAAAAGACUGCUAAAGGAAAUCGUCCAGUGAUGUUGGAGGACCGGGUCUGGUAUCU [TrypBX 16 #SwitchBubble #Palindromic #StaticStem] | 1120 |

same assay, conditions: Eterna round: R107; input ligand: arginine 13.2 mM

| Sequence | apparent KD of K4 kissing-loop reporter [nM] |
| --- | --- |
| UGAUACCAGACUGAUACCAGCAAGUGAUGUUUGUUGAUCAAAAGCAGUCAAAGACUGCUUUGCCCUUGGCAGCAGUCUGGUAUCU [#10 K4 Theophylline B Exclusion] | 148 |
| GGUAGCAUGGCGGCCGCCACUUACACCACGGCCCUUCUAGUGAUGUUAGAGUGGAUUAUUCCGUUAAGGACCGGGCCAUGCUACC | 430 |
| UUUCCAGAUAAGUGGGAACGCUCCAUAACAGAGGAUAUCAGAGCGCUGAGAAGGCUGUUUUACAGUGAUGUUGUAAGUGUGGAGC [#10 K4 FMN A Same State] | 272 |
| AGAGUUAUGAGAGGAUAUGCGGCUAGUACUCAAAGAGUACUAGCAGCAGAGUGAUGUUCUGUGAAAGCAGAAGGUUCAUAACUCA [#06 K4 FMN B Same State] | 668 |
| GAGGUAUGCGCAGUGAUGUUGCGACGAGAUACCAGUCGUUCUGUCGACCCUUGGCAGCUCCCACCAGACGUACGAGUUUGUGUUG [theeternabot_sameState_KL_Theo_A_10] | 111 |
| ACACUUUACGUAGGAUAUGCGACGAGUGAUGUUCGUCAGGCGGCUUGAGCUUAAACAGGCCGUCUAGCAGAAGGACGGGCAGUGU [Diorsodi] | 143 |
| AAUUUUAAUAAUAAAUAAUAAAUAAAUGAUACCAGUAUUUUUUUUUACCCUUGGCAGCGUAUAUAAGGGCAGUGAUGUUGUCAAA [whbob_SS_Theo_A_w58] | 136 |
| UGGGCCGCCUGAGGAUAUAGAGACGAGUGAUGUUCGUGGAUAAGAGCCAGUGAUGUUGGGUUAUUUCUAGAAGGCGGGCGAACUU [Exclusion FMN B GF9] | 95.1 |
| ACGUCCGGAUUGAUCGUGGGCAUGGUCGAUACCAGUAGUUUAAUCUACCCUUGGCAGCGACAUGAGUGAUGUUCAUGUGCGGUGA [#14 K4 Theophylline A Exclusion] | 191 |
| UGGAGUUGACGAAAAGUCAACUCCAGAGAAGGAGCGGACGAAAGUCCAGGUAGGUCGCUCACUACCAGUGAUGUUGGUACUAAAA | 190 |
